Measured values published in patent US20200157519A1.

B1: phage-displayed 3D5 scFv (scFv)
scFv: DIQMTQSPSSLSASVGDRVTITCRASQDVSNNVAWYQQKPGKAPKLLIFWSPWLYSGVPSRFSGSGSGTDFTLTISSLQPEDFATYYCQQGWDSPVTFGQGTKVEIKRGGGGSGGGGSGGGGSEVQLVESGGGLVQPGGSLRLSCAASGFTISDFGIHWVRQAPGKGLEWVASIWPSGGYTYYADSVKGRFTISADTSKNTAYLQMNSLRAEDTAVYYCARSWFYSWYDYWGQGTLVTVSS
B2: scFv clone 7A3 (scFv, V domains shown)
VH: EVQLVESGGGLVQPGGSLRLSCAASGFTINDWSIHWVRQAPGKGLEWVAYIGPFWGSTFYADSVKGRFTISADTSKNTAYLQMNSLRAEDTAVYYCARGYFGFDYWGQGTLVTVSS
VL: DIQMTQSPSSLSASVGDRVTITCRASQDVGGWVAWYQQKPGKAPKLLISSPRSLYSGVPSRFSGSGSGTDFTLTISSLQPEDFATYYCQQYFSSPFTFGQGTKVEIKR
B3: scFv clone 3C2 (scFv, V domains shown)
VH: EVQLVESGGGLVQPGGSLRLSCAASGFTIGNSSIHWVRQAPGKGLEWVAGIWPYWGSTYYADSVKGRFTISADTSKNTAYLQMNSLRAEDTAVYYCARFGINNDGFMDYWGQGTLVTVSS
VL: DIQMTQSPSSLSASVGDRVTITCRASQDVSGWVAWYQQKPGKAPKLLISSTGSLYSGVPSRFSGSGSGTDFTLTISSLQPEDFATYYCQQYYDFPITFGQGTKVEIKR
B4: scFv clone 8F2 (scFv, V domains shown)
VH: EVQLVESGGGLVQPGGSLRLSCAASGFTINNYGIHWVRQAPGKGLEWVAGIWPYWGYTYYADSVKGRFTISADTSKNTAYLQMNSLRAEDTAVYYCARFDSNSYSSYSDGFMDYWGQGTLVTVSS
VL: DIQMTQSPSSLSASVGDRVTITCRASQDVDNSVAWYQQKPGKAPKLLISSARSLYSGVPSRFSGSGSGTDFTLTISSLQPEDFATYYCQQYYNYPITFGQGTKVEIKR

Target: human fibrinogen (human) (UniProt P02671)
Test: single colony ELISA, secreted scFv on coated fibrinogen (negative control antigen), anti-E-tag-HRP

Sequence of human fibrinogen (human) (P02671 20-629 limits assumed, chain 1 of 3): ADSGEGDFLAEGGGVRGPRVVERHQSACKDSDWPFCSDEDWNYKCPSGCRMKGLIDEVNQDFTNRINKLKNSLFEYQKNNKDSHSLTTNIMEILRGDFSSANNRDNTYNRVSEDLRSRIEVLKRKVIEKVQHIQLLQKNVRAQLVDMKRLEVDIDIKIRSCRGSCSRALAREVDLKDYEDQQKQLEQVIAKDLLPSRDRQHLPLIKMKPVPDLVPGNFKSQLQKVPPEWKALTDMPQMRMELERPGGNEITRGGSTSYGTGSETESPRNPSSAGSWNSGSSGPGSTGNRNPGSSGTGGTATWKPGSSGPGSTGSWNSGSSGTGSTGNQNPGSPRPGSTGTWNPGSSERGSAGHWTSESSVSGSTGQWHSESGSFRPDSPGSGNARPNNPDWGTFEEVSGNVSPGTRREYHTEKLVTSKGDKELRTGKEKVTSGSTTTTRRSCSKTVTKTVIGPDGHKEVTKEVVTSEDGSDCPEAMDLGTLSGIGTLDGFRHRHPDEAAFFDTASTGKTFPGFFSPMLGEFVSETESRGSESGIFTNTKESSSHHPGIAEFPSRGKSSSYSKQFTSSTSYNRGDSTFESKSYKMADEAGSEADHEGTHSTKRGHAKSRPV
Sequence of human fibrinogen (human) (P02675 31-491 limits assumed, chain 2 of 3, further chain): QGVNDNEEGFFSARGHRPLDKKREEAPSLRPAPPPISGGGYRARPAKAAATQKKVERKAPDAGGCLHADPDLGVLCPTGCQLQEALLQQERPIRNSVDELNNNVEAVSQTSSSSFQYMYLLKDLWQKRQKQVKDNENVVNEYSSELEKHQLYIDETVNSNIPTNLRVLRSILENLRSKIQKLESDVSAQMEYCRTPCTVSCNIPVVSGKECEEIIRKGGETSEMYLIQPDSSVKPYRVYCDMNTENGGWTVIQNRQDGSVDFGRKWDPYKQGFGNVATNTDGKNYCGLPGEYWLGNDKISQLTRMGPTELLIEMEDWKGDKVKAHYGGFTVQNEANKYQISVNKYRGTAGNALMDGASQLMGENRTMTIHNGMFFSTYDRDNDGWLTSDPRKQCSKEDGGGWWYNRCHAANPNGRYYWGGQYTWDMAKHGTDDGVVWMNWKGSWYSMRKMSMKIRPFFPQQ
Sequence of human fibrinogen (human) (P02679 other isoform, or with tags, fused parts or gaps limits assumed, chain 3 of 3, further chain): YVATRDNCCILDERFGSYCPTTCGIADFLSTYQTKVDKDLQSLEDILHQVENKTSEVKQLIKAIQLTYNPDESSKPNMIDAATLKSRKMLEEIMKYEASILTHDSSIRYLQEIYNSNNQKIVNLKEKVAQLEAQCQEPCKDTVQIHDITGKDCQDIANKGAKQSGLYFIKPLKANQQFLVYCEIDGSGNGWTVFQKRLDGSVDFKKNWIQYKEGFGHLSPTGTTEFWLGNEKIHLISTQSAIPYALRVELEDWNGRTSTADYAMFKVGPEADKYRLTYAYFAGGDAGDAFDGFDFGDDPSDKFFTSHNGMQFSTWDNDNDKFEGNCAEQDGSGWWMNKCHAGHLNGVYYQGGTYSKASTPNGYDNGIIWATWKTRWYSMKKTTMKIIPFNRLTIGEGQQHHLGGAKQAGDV

Point of comparison: B2, OD450 Fibrinogen 0.0209 OD450. Against it:
- B1 — lower, 0.0022 OD450
- B3 — lower, 0.0117 OD450
- B4 — higher, 0.0366 OD450
